The assay deals with Human CD59 on human erythrocytes (human (endogenous in human erythrocytes)) (UniProt P13987).
Human CD59 on human erythrocytes (human (endogenous in human erythrocytes)), sequence (P13987 26-102): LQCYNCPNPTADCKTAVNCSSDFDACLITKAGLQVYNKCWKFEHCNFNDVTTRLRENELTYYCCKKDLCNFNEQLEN

For ILY LI > TV mutant (natural protein), the fold increase of the dose required for 50% hemolysis of human erythrocytes against native ILY was found to be 2.5 fold.

The values above are taken from article PMC2697320, “Identification of the high affinity binding site in the Streptococcus intermedius toxin intermedilysin for its membrane receptor, the human complement regulator CD59” (Molecular Immunology, 2009).
